Test results reported in publication PMC8517123, “Functional Interaction Between Caveolin 1 and LRRC8-Mediated Volume-Regulated Anion Channel” (Frontiers in Physiology, 2021).

Target: T1, Leucine-rich repeat-containing 8A (human (endogenous in HEK 293), UniProt Q8IWT6 1-810)
T1 construct: LRRC8A, essential subunit of the volume-regulated anion channel (VRAC), endogenous in HEK 293 cells; Endogenous protein in lysate; in cells it is part of heteromeric LRRC8 channels, and other subunits may be present in the precipitate; also called LRRC8A; source: endogenous, HEK 293 lysate (1% Triton X-100)
T1 sequence (looked up): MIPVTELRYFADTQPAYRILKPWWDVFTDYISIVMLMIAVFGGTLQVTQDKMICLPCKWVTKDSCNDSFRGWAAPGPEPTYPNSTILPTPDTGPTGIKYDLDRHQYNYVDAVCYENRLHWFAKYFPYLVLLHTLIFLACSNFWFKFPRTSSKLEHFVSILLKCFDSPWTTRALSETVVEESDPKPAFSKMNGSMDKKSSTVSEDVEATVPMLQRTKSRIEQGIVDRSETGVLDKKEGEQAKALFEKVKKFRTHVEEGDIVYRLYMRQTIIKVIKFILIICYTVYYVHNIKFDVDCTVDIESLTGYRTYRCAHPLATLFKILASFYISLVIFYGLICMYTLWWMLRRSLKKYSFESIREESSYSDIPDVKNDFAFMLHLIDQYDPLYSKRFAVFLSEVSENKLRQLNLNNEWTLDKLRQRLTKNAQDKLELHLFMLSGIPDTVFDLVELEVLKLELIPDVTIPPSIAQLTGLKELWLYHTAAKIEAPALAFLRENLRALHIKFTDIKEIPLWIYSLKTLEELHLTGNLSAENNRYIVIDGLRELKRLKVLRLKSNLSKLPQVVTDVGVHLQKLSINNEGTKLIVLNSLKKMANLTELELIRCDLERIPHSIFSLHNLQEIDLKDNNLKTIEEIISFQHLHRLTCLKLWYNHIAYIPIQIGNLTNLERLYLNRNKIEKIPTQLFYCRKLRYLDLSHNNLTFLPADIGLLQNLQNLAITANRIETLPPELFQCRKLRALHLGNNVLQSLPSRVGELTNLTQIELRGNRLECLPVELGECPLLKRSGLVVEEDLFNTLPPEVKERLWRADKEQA
Assay: co-IP; endogenous proteins; HEK 293 cells exposed to isotonic (300 mOsm/Kg) or hypotonic (255 mOsm/Kg) solution for 7 min at 37°C; lysis in 1% Triton X-100; 100-500 μg protein with 2-4 μg anti-Cav1 or anti-LRRC8A antibody at 4°C overnight, protein A sepharose; western blot
Details: partners not purified

B1: Caveolin 1 (natural protein, human (endogenous in HEK 293), UniProt Q03135 1-178, looked up)
chain: MSGGKYVDSEGHLYTVPIREQGNIYKPNNKAMADELSEKQVYDAHTKEIDLVNRDPKHLNDDVVKIDFEDVIAEPEGTHSFDGIWKASFTTFTVTKYWFYRLLSALFGIPMALIWGIYFAILSFLHIWAVVPCIKSFLIEIQCISRVYSIYVHTVCDPLFEAVGKIFSNVRINLQKEI
notes: Caveolin 1, endogenous in HEK 293 cells; also called Cav1; source: endogenous, HEK 293 lysate (1% Triton X-100)
LRRC8A/Cav1 ratio, hypotonic vs. isotonic (densitometry of co-IP): 2.2 ratio
